# Measured values reported in PMC12135382 (The Journal of Biological Chemistry, 2025).
# T1: GR W712A-LgBiT (human, UniProt P04150 1-777, W712A)
# T1 sequence: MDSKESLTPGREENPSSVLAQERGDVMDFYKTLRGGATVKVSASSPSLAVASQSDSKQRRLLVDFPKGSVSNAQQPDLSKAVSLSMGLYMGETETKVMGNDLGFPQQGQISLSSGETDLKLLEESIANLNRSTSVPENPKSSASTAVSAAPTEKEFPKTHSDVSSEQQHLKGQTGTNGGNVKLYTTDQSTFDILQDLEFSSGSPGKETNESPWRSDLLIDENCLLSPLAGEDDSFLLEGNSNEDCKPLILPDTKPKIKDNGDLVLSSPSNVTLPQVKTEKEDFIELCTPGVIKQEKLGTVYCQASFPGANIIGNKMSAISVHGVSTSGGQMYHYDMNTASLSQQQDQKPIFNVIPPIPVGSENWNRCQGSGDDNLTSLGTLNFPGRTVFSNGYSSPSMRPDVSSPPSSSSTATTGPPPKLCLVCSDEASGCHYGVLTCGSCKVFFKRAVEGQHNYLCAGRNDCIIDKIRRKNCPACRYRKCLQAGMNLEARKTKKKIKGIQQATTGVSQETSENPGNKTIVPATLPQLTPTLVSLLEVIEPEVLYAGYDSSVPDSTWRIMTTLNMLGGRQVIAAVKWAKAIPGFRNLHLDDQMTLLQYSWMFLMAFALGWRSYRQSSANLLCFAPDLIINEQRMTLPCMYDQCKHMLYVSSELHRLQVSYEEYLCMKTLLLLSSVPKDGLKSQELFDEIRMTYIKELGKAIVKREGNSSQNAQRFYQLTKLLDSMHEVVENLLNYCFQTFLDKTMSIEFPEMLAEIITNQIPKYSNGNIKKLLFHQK
# B1: MR-SmBiT (mineralocorticoid receptor with C-terminal NanoBit small tag) (receptor)
# chain: METKGYHSLPEGLDMERRWGQVSQAVERSSLGPTERTDENNYMEIVNVSCVSGAIPNNSTQGSSKEKQELLPCLQQDNNRPGILTSDIKTELESKELSATVAESMGLYMDSVRDADYSYEQQNQQGSMSPAKIYQNVEQLVKFYKGNGHRPSTLSCVNTPLRSFMSDSGSSVNGGVMRAVVKSPIMCHEKSPSVCSPLNMTSSVCSPAGINSVSSTTASFGSFPVHSPITQGTPLTCSPNVENRGSRSHSPAHASNVGSPLSSPLSSMKSSISSPPSHCSVKSPVSSPNNVTLRSSVSSPANINNSRCSVSSPSNTNNRSTLSSPAASTVGSICSPVNNAFSYTASGTSAGSSTLRDVVPSPDTQEKGAQEVPFPKTEEVESAISNGVTGQLNIVQYIKPEPDGAFSSSCLGGNSKINSDSSFSVPIKQESTKHSCSGTSFKGNPTVNPFPFMDGSYFSFMDDKDYYSLSGILGPPVPGFDGNCEGSGFPVGIKQEPDDGSYYPEASIPSSAIVGVNSGGQSFHYRIGAQGTISLSRSARDQSFQHLSSFPPVNTLVESWKSHGDLSSRRSDGYPVLEYIPENVSSSTLRSVSTGSSRPSKICLVCGDEASGCHYGVVTCGSCKVFFKRAVEGQHNYLCAGRNDCIIDKIRRKNCPACRLQKCLQAGMNLGARKSKKLGKLKGIHEEQPQQQQPPPPPPPPQSPEEGTTYIAPAKEPSVNTALVPQLSTISRALTPSPVMVLENIEPEIVYAGYDSSKPDTAENLLSTLNRLAGKQMIQVVKWAKVLPGFKNLPLEDQITLIQYSWMCLSSFALSWRSYKHTNSQFLYFAPDLVFNEEKMHQSAMYELCQGMHQISLQFVRLQLTFEEYTIMKVLLLLSTIPKDGLKSQAAFEEMRTNYIKELRKMVTKCPNNSGQSWQRFYQLTKLLDSMHDLVSDLLEFCFYTFRESHALKVEFPAMLVEIISDQLPKVESGNAKPLYFHRK
# Target: T1, GR W712A-LgBiT
# Assay: split reporter
binder,measurement,value
B1,reconstituted luciferase activity relative to WT receptors,32%
